This passage reports half-life of the pMHCI complex results from paper PMC3024538.

For this assay, the target named is HLA A*0201 α chain with β2m, recombinant, biotinylated. The experiment in a line: SPR. For orientation: Surface plasmon resonance follows binding to a sensor surface in real time, without labels.

Turning to Melan-A/MART-1 26-35 peptide […], the half-life of the pMHCI complex came out at 6 h.
